{"source": "paper PMC4395418", "about": "“The Aspartate-Less Receiver (ALR) Domains: Distribution, Structure and Function” (PLoS Pathogens, 2015)", "key": {"[1]": {"target": "the molecule itself", "assay": "SEC; RitRFL wild-type and mutants; Agilent 1220 HPLC, BioBasic SEC-300A column, 50 mM TRIS pH 8.0, 150 mM NaCl, 10 mM DTT; proteins pre-treated with 10 mM DTT; 0.5 ml/min, ambient temperature"}, "[2]": {"target": "RitR FL L86A/V93A (Streptococcus pneumoniae R800, UniProt A0ACD7PPZ9 1-229, L86A;V93A)", "assay": "EMSA; 20 mM HEPES pH 7.2, 5 mM MgCl2, 1 mM CaCl2, 0.1 mM EDTA, 10 mM DTT, 10% glycerol, 0.5 uM DNA, 800 ng poly(dI-dC) in 20 ul, room temperature 10 min; 4% native TAE PAGE", "conditions": "protein: recombinant; tags: His6-SUMO removed by ULP1; chain copies: 2; label: 5' HEX on strand 1; blunt"}, "[3]": {"target": "RitR FL L90A (Streptococcus pneumoniae R800, UniProt A0ACD7PPZ9 1-229, L90A)", "assay": "EMSA; 20 mM HEPES pH 7.2, 5 mM MgCl2, 1 mM CaCl2, 0.1 mM EDTA, 10 mM DTT, 10% glycerol, 0.5 uM DNA, 800 ng poly(dI-dC) in 20 ul, room temperature 10 min; 4% native TAE PAGE", "conditions": "protein: recombinant; tags: His6-SUMO removed by ULP1; chain copies: 2; label: 5' HEX on strand 1; blunt"}, "[4]": {"target": "RitR FL F96G (Streptococcus pneumoniae R800, UniProt A0ACD7PPZ9 1-229, F96G)", "assay": "EMSA; 20 mM HEPES pH 7.2, 5 mM MgCl2, 1 mM CaCl2, 0.1 mM EDTA, 10 mM DTT, 10% glycerol, 0.5 uM DNA, 800 ng poly(dI-dC) in 20 ul, room temperature 10 min; 4% native TAE PAGE", "conditions": "protein: recombinant; tags: His6-SUMO removed by ULP1; chain copies: 2; label: 5' HEX on strand 1; blunt"}, "[5]": {"target": "RitR FL L86A (Streptococcus pneumoniae R800, UniProt A0ACD7PPZ9 1-229, L86A)", "assay": "EMSA; 20 mM HEPES pH 7.2, 5 mM MgCl2, 1 mM CaCl2, 0.1 mM EDTA, 10 mM DTT, 10% glycerol, 0.5 uM DNA, 800 ng poly(dI-dC) in 20 ul, room temperature 10 min; 4% native TAE PAGE", "conditions": "protein: recombinant; tags: His6-SUMO removed by ULP1; chain copies: 2; label: 5' HEX on strand 1; blunt"}, "[6]": {"target": "RitR FL D81A (Streptococcus pneumoniae R800, UniProt A0ACD7PPZ9 1-229, D81A)", "assay": "EMSA; binding seen at 0.22 uM protein; 20 mM HEPES pH 7.2, 5 mM MgCl2, 1 mM CaCl2, 0.1 mM EDTA, 10 mM DTT, 10% glycerol, 0.5 uM DNA, 800 ng poly(dI-dC) in 20 ul, room temperature 10 min; 4% native TAE PAGE", "conditions": "protein: recombinant; tags: His6-SUMO removed by ULP1; chain copies: 2; label: 5' HEX on strand 1; blunt"}, "[7]": {"target": "RitR FL Y100A (Streptococcus pneumoniae R800, UniProt A0ACD7PPZ9 1-229, Y100A)", "assay": "EMSA; binding seen at 0.22 uM protein; 20 mM HEPES pH 7.2, 5 mM MgCl2, 1 mM CaCl2, 0.1 mM EDTA, 10 mM DTT, 10% glycerol, 0.5 uM DNA, 800 ng poly(dI-dC) in 20 ul, room temperature 10 min; 4% native TAE PAGE", "conditions": "protein: recombinant; tags: His6-SUMO removed by ULP1; chain copies: 2; label: 5' HEX on strand 1; blunt"}, "[8]": {"target": "RitR FL wild-type (Streptococcus pneumoniae R800, UniProt A0ACD7PPZ9 1-229)", "assay": "EMSA; up to 6.6 uM protein; 20 mM HEPES pH 7.2, 5 mM MgCl2, 1 mM CaCl2, 0.1 mM EDTA, 10 mM DTT, 10% glycerol, 0.5 uM DNA, 800 ng poly(dI-dC) in 20 ul, room temperature 10 min; 4% native TAE PAGE", "conditions": "protein: recombinant; tags: His6-SUMO removed by ULP1; chain copies: 2; label: 5' HEX on strand 1; blunt"}, "[9]": {"target": "the molecule itself", "assay": "SEC; purified 15N-labelled RitRALR (ALR domain only) wild-type and Ala mutants; oligomeric state"}}}
{"binder": "RitR full-length, Leu86 to Ala Gate mutant (natural protein, RitR, Streptococcus pneumoniae strain R800, full-length, Gate residue Leu86 changed to Ala; also called RitRFL Leu86 mutant; source: E. coli BL21(DE3) or BL21(DE3)-Star, purified (Ni2+ agarose, ULP1 cleavage, subtractive Ni2+ column); not shown: His6, N-terminal, cleaved; SUMO, N-terminal, cleaved) MGKRILLLEKERNLAHFLSLELQKEQYRVDLVEEGQKALSMALQTDYDLILLNVNLGDMMAQDFAEKLSRTKPASVIMILDHWEDAQEELEVVQRFAVSYIYKPVLIENLVARISAIFRGRDFIDQHCSLMKVPRTYRNLRIDVEHHTVYRGEEMIALTRREYDLLATLMGSKKVLTREQLLESVWKYESATETNIVDVYIRYLRSKLDVKGQKSYIKTVRGVGYTMQE", "values": [{"measurement": "stoichiometry N", "setting": "[1]", "value": 2}]}
{"binder": "RitR full-length, Leu86/Val93 double mutant (natural protein, RitR, Streptococcus pneumoniae strain R800, full-length, Val93 mutant combined with a Leu86 mutation (Ala); also called RitRFL Leu86/Val93 double mutant; source: E. coli BL21(DE3) or BL21(DE3)-Star, purified (Ni2+ agarose, ULP1 cleavage, subtractive Ni2+ column); not shown: His6, N-terminal, cleaved; SUMO, N-terminal, cleaved) MGKRILLLEKERNLAHFLSLELQKEQYRVDLVEEGQKALSMALQTDYDLILLNVNLGDMMAQDFAEKLSRTKPASVIMILDHWEDAQEELEVAQRFAVSYIYKPVLIENLVARISAIFRGRDFIDQHCSLMKVPRTYRNLRIDVEHHTVYRGEEMIALTRREYDLLATLMGSKKVLTREQLLESVWKYESATETNIVDVYIRYLRSKLDVKGQKSYIKTVRGVGYTMQE", "values": [{"measurement": "stoichiometry N", "setting": "[1]", "value": 2}]}
{"binder": "RitR full-length, Val93 to Ala Gate mutant (natural protein, RitR, Streptococcus pneumoniae strain R800, full-length, Ala substitution of Gate residue Val93; also called RitRFL Val93 mutant; source: E. coli BL21(DE3) or BL21(DE3)-Star, purified (Ni2+ agarose, ULP1 cleavage, subtractive Ni2+ column); not shown: His6, N-terminal, cleaved; SUMO, N-terminal, cleaved) MGKRILLLEKERNLAHFLSLELQKEQYRVDLVEEGQKALSMALQTDYDLILLNVNLGDMMAQDFAEKLSRTKPASVIMILDHWEDLQEELEVAQRFAVSYIYKPVLIENLVARISAIFRGRDFIDQHCSLMKVPRTYRNLRIDVEHHTVYRGEEMIALTRREYDLLATLMGSKKVLTREQLLESVWKYESATETNIVDVYIRYLRSKLDVKGQKSYIKTVRGVGYTMQE", "values": [{"measurement": "stoichiometry N", "setting": "[1]", "value": 2}]}
{"binder": "RitR full-length, Leu90 to Ala Gate mutant (natural protein, RitR, Streptococcus pneumoniae strain R800, full-length, Gate residue Leu90 changed to Ala; also called RitRFL Leu90 mutant; source: E. coli BL21(DE3) or BL21(DE3)-Star, purified (Ni2+ agarose, ULP1 cleavage, subtractive Ni2+ column); not shown: His6, N-terminal, cleaved; SUMO, N-terminal, cleaved) MGKRILLLEKERNLAHFLSLELQKEQYRVDLVEEGQKALSMALQTDYDLILLNVNLGDMMAQDFAEKLSRTKPASVIMILDHWEDLQEEAEVVQRFAVSYIYKPVLIENLVARISAIFRGRDFIDQHCSLMKVPRTYRNLRIDVEHHTVYRGEEMIALTRREYDLLATLMGSKKVLTREQLLESVWKYESATETNIVDVYIRYLRSKLDVKGQKSYIKTVRGVGYTMQE", "values": [{"measurement": "stoichiometry N", "setting": "[1]", "value": 2}]}
{"binder": "BS2 33-mer (dsDNA) DNA 1: ATTTTATTGACAGATTAGAAAAATAATGTTACA DNA 2: TGTAACATTATTTTTCTAATCTGTCAATAAAAT", "values": [{"measurement": "binding result", "setting": "[2]", "value": "binds"}, {"measurement": "binding result", "setting": "[3]", "value": "binds"}, {"measurement": "binding result", "setting": "[4]", "value": "no binding"}, {"measurement": "binding result", "setting": "[5]", "value": "binds"}, {"measurement": "binding result", "setting": "[6]", "value": "binds"}, {"measurement": "binding result", "setting": "[7]", "value": "binds"}, {"measurement": "binding result", "setting": "[8]", "value": "no binding"}]}
{"binder": "RitR ALR (REC) receiver domain, Leu86 to Ala mutant (domain or fragment, RitR, Streptococcus pneumoniae strain R800, ALR (REC) domain, amino acids Met1-Ile124, Ala substitution of Leu86; extra C-terminal glycine residue; PDB 4LZL is the wild-type parent of the same limits; also called RitRALR Leu86 mutant; source: E. coli BL21 DE3, 15N-labelled in M9 medium, purified (Ni-NTA, ULP1 cleavage, subtractive Ni-NTA); not shown: His6, N-terminal, cleaved; SUMO, N-terminal, …) MGKRILLLEKERNLAHFLSLELQKEQYRVDLVEEGQKALSMALQTDYDLILLNVNLGDMMAQDFAEKLSRTKPASVIMILDHWEDAQEELEVVQRFAVSYIYKPVLIENLVARISAIFRGRDFIG", "values": [{"measurement": "stoichiometry N", "setting": "[9]", "value": 2}]}
{"binder": "RitR ALR (REC) receiver domain, Leu90 to Ala mutant (domain or fragment, RitR, Streptococcus pneumoniae strain R800, ALR (REC) domain, amino acids Met1-Ile124, Leu90 changed to Ala; extra C-terminal glycine residue; PDB 4LZL is the wild-type parent of the same limits; also called RitRALR Leu90>Ala mutant; Leu90 mutant; source: E. coli BL21 DE3, 15N-labelled in M9 medium, purified (Ni-NTA, ULP1 cleavage, subtractive Ni-NTA); not shown: His6, N-terminal, cleaved; SUMO, …) MGKRILLLEKERNLAHFLSLELQKEQYRVDLVEEGQKALSMALQTDYDLILLNVNLGDMMAQDFAEKLSRTKPASVIMILDHWEDLQEEAEVVQRFAVSYIYKPVLIENLVARISAIFRGRDFIG", "values": [{"measurement": "stoichiometry N", "setting": "[9]", "value": 2}]}
